Molecular target: T7 RNA polymerase (UniProt P00573 1-883)
Assay: confocal localization to immobilized DNA; 500 nM Cy5-T7 RNAP, 0.5 h, 37 C; target in proteinosomes; reaction buffer (composition not in the material; NEB buffer 3.1 mentioned), 37 C; DNA localization in 10 mM Tris pH 8.0, 12 mM Mg, 0.1% Tween 20
Details: protein: commercial; tags: Cy5 label; label: Cy3 5' on NTMG; biotin on TMG; NTMG 5' overhang 27 nt (incomplete T7 promoter)

T7 RNA polymerase, sequence (P00573 whole entry): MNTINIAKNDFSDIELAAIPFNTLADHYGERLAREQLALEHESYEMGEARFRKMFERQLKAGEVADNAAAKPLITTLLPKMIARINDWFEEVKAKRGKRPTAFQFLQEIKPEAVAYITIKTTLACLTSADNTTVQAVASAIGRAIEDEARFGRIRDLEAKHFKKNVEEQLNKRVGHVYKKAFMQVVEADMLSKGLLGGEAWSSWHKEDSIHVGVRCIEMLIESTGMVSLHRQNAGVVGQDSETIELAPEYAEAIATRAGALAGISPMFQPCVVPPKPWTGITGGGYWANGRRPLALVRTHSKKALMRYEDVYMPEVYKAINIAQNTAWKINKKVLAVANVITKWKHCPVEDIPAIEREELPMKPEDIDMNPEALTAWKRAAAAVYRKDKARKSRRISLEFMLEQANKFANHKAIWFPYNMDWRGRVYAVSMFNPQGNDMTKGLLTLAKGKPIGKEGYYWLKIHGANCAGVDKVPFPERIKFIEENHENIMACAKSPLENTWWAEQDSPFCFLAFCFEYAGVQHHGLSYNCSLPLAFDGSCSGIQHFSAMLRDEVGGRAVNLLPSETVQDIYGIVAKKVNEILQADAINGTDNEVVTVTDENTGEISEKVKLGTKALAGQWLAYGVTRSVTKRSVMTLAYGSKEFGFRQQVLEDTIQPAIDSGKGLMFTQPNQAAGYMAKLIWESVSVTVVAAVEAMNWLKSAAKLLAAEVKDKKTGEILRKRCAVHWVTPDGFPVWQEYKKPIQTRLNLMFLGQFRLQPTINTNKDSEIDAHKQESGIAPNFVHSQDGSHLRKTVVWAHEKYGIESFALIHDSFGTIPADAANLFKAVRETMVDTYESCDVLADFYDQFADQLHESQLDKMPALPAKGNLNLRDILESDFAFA

B1: MG genelet TMG/NTMG (dsDNA)
DNA 1: CATTAGTGTCGTTCGTTCACAGTAATACGACTCACTATAGGGATCCCGACTGGCGAGAGCCAGGTAACGAATGGATC
DNA 2: GATCCATTCGTTACCTGGCTCTCGCCAGTCGGGATCCCTATAGTGAGTCG
  binding result: binds

— PMC9320857, “Protocellular CRISPR/Cas‐Based Diffusive Communication Using Transcriptional RNA Signaling”
